{"source": "the supplement of paper PMC10567573", "parents": {"B1": {"name": "RSPH3 (parent)", "chain": "LELQRQREARKRALARKQAQEQLR"}}, "data": [{"variants_of": "B1", "assay": "protein stability index of a GFP-peptide fusion (GPS, HEK-293T) (PSI 1-6); higher = more stable", "conditions": "c terminus: a fixed tail appended", "values": [{"variant": "LELQRQREARLRALARKQAQEQLR", "protein stability index": 3.82}, {"variant": "LELQRQREARRRALARKQAQEQLR", "protein stability index": 3.78}, {"variant": "LELQRQREARGRALARKQAQEQLR", "protein stability index": 4.44}, {"variant": "LELQRQREARPRALARKQAQEQLR", "protein stability index": 3.82}, {"variant": "LELQRQREARARALARKQAQEQLR", "protein stability index": 3.84}, {"variant": "LELQRQREARDRALARKQAQEQLR", "protein stability index": 4.51}, {"variant": "LELQRQREARFRALARKQAQEQLR", "protein stability index": 3.46}, {"variant": "LELQRQREARNRALARKQAQEQLR", "protein stability index": 3.8}, {"variant": "LELQRQREARHRALARKQAQEQLR", "protein stability index": 4.44}, {"variant": "LELQRQREARMRALARKQAQEQLR", "protein stability index": 3.5}, {"variant": "LELQRQREARIRALARKQAQEQLR", "protein stability index": 3.27}, {"variant": "LELQRQREARWRALARKQAQEQLR", "protein stability index": 2.92}, {"variant": "LELQRQREARQRALARKQAQEQLR", "protein stability index": 4.35}, {"variant": "LELQRQREARCRALARKQAQEQLR", "protein stability index": 2.94}, {"variant": "LELQRQREARVRALARKQAQEQLR", "protein stability index": 2.74}, {"variant": "LELQRQREARSRALARKQAQEQLR", "protein stability index": 4.11}, {"variant": "LELQRQREARYRALARKQAQEQLR", "protein stability index": 3.07}, {"variant": "LELQRQREARTRALARKQAQEQLR", "protein stability index": 3.46}, {"variant": "LELQRQREARERALARKQAQEQLR", "protein stability index": 4.35}, {"variant": "LELQRQREAYKRALARKQAQEQLR", "protein stability index": 3.17}, {"variant": "LELQRQREAIKRALARKQAQEQLR", "protein stability index": 3.22}, {"variant": "LELQRQREACKRALARKQAQEQLR", "protein stability index": 3.43}, {"variant": "LELQRQREAWKRALARKQAQEQLR", "protein stability index": 3.53}, {"variant": "LELQRQREAFKRALARKQAQEQLR", "protein stability index": 3.52}, {"variant": "LELQRQREAMKRALARKQAQEQLR", "protein stability index": 3.76}, {"variant": "LELQRQREAKKRALARKQAQEQLR", "protein stability index": 3.07}, {"variant": "LELQRQREASKRALARKQAQEQLR", "protein stability index": 4.2}, {"variant": "LELQRQREALKRALARKQAQEQLR", "protein stability index": 3.62}, {"variant": "LELQRQREAAKRALARKQAQEQLR", "protein stability index": 4.57}, {"variant": "LELQRQREANKRALARKQAQEQLR", "protein stability index": 4.28}, {"variant": "LELQRQREAPKRALARKQAQEQLR", "protein stability index": 4.3}, {"variant": "LELQRQREAEKRALARKQAQEQLR", "protein stability index": 4.08}, {"variant": "LELQRQREAQKRALARKQAQEQLR", "protein stability index": 4.43}, {"variant": "LELQRQREAGKRALARKQAQEQLR", "protein stability index": 4.26}, {"variant": "LELQRQREAVKRALARKQAQEQLR", "protein stability index": 3.38}, {"variant": "LELQRQREADKRALARKQAQEQLR", "protein stability index": 4.38}, {"variant": "LELQRQREATKRALARKQAQEQLR", "protein stability index": 3.92}, {"variant": "LELQRQREAHKRALARKQAQEQLR", "protein stability index": 3.79}, {"variant": "LELQRQREARKRFLARKQAQEQLR", "protein stability index": 3.39}, {"variant": "LELQRQREARKRQLARKQAQEQLR", "protein stability index": 4.45}, {"variant": "LELQRQREARKRGLARKQAQEQLR", "protein stability index": 3.33}, {"variant": "LELQRQREARKRTLARKQAQEQLR", "protein stability index": 3.85}, {"variant": "LELQRQREARKRILARKQAQEQLR", "protein stability index": 3.76}, {"variant": "LELQRQREARKRVLARKQAQEQLR", "protein stability index": 3.78}, {"variant": "LELQRQREARKRDLARKQAQEQLR", "protein stability index": 4.07}, {"variant": "LELQRQREARKRNLARKQAQEQLR", "protein stability index": 4.25}, {"variant": "LELQRQREARKRELARKQAQEQLR", "protein stability index": 4.5}, {"variant": "LELQRQREARKRPLARKQAQEQLR", "protein stability index": 4.14}, {"variant": "LELQRQREARKRKLARKQAQEQLR", "protein stability index": 3.36}, {"variant": "LELQRQREARKRHLARKQAQEQLR", "protein stability index": 4.06}, {"variant": "LELQRQREARKRCLARKQAQEQLR", "protein stability index": 3.24}, {"variant": "LELQRQREARKRSLARKQAQEQLR", "protein stability index": 3.77}, {"variant": "LELQRQREARKRLLARKQAQEQLR", "protein stability index": 3.35}, {"variant": "LELQRQREARKRMLARKQAQEQLR", "protein stability index": 3.29}, {"variant": "LELQRQREARKRWLARKQAQEQLR", "protein stability index": 3.73}, {"variant": "LELQRQREARKRRLARKQAQEQLR", "protein stability index": 4.18}, {"variant": "LELQRQREARKRYLARKQAQEQLR", "protein stability index": 3.49}, {"variant": "LELQRQREARKRACARKQAQEQLR", "protein stability index": 3.74}, {"variant": "LELQRQREARKRADARKQAQEQLR", "protein stability index": 4.66}, {"variant": "LELQRQREARKRAEARKQAQEQLR", "protein stability index": 4.35}, {"variant": "LELQRQREARKRAAARKQAQEQLR", "protein stability index": 4.46}, {"variant": "LELQRQREKRKRALARKQAQEQLR", "protein stability index": 3.68}, {"variant": "LELQRQREIRKRALARKQAQEQLR", "protein stability index": 3.39}, {"variant": "LELQRQRESRKRALARKQAQEQLR", "protein stability index": 4.01}, {"variant": "LELQRQREYRKRALARKQAQEQLR", "protein stability index": 3.71}, {"variant": "LELQRQREVRKRALARKQAQEQLR", "protein stability index": 3.71}, {"variant": "LELQRQREWRKRALARKQAQEQLR", "protein stability index": 2.86}, {"variant": "LELQRQRETRKRALARKQAQEQLR", "protein stability index": 3.31}, {"variant": "LELQRQRENRKRALARKQAQEQLR", "protein stability index": 3.45}, {"variant": "LELQRQREQRKRALARKQAQEQLR", "protein stability index": 3.32}, {"variant": "LELQRQREMRKRALARKQAQEQLR", "protein stability index": 3.84}, {"variant": "LELQRQRERRKRALARKQAQEQLR", "protein stability index": 4.11}, {"variant": "LELQRQRELRKRALARKQAQEQLR", "protein stability index": 3.47}, {"variant": "LELQRQREHRKRALARKQAQEQLR", "protein stability index": 4.07}, {"variant": "LELQRQREPRKRALARKQAQEQLR", "protein stability index": 4}, {"variant": "LELQRQREARKVALARKQAQEQLR", "protein stability index": 3.81}, {"variant": "LELQRQREARKMALARKQAQEQLR", "protein stability index": 4.18}, {"variant": "LELQRQREARKNALARKQAQEQLR", "protein stability index": 4.45}, {"variant": "LELQRQREARKCALARKQAQEQLR", "protein stability index": 3.9}, {"variant": "LELQRQREARKLALARKQAQEQLR", "protein stability index": 3.22}, {"variant": "LELQRQREARKPALARKQAQEQLR", "protein stability index": 4.25}, {"variant": "LELQRQREARKYALARKQAQEQLR", "protein stability index": 3.77}, {"variant": "LELQRQREARKIALARKQAQEQLR", "protein stability index": 4.21}, {"variant": "LELQRQREARKWALARKQAQEQLR", "protein stability index": 3.21}, {"variant": "LELQRQREARKGALARKQAQEQLR", "protein stability index": 4.23}, {"variant": "LELQRQREARKDALARKQAQEQLR", "protein stability index": 4.15}, {"variant": "LELQRQREARKSALARKQAQEQLR", "protein stability index": 3.81}, {"variant": "LELQRQREARKHALARKQAQEQLR", "protein stability index": 3.71}, {"variant": "LELQRQREARKFALARKQAQEQLR", "protein stability index": 2.82}, {"variant": "LELQRQREARKAALARKQAQEQLR", "protein stability index": 4.23}, {"variant": "LELQRQREARKEALARKQAQEQLR", "protein stability index": 4.71}, {"variant": "LELQRQREARKTALARKQAQEQLR", "protein stability index": 3.79}, {"variant": "LELQRQREARKQALARKQAQEQLR", "protein stability index": 4.33}, {"variant": "LELQRQREARKKALARKQAQEQLR", "protein stability index": 3.97}]}]}
